The source of these data is IntAct's records for PubMed 21784248.

B1: Nucleoporin NIC96 (Chaetomium thermophilum (strain DSM 1495 / CBS 144.50 / IMI 039719)), G0S024 (parent)
chain: MSLIGNGPSVPPSSTKASLFSSPTTSANPTGGLFGSTTGGSSLFAPKTAGSTTTSTTQPTSTTGLGTSLFGTSTTANTQNTANAARPSLFTAGNSIFGTSTTQPGLGASSLTTAATSNQQAQQQQQQRQQHQQAAPTGALFDSLLARNKKQAEGETALGELPSLQLGLADLRQRLRKLGPSSDRPIEPGKAHYFLAASGVDPGAAVRDLGALGLQAKTERTAASVGPAAGPSGVSTTGFGTGLGEVDVDTYLSNLQTKTTLSMIADGLERSARDFDAFLEENVTLEWEAQRKRIYQHFGIKPRDSSVAGTTTAQPTATPSKDGQGTFGRSRRKASQPPPGERPAQRMSILGRSTMMRSVIGTPTRIGAHAPEFSDVEARKDSSGAAVASVDDRFLREKQAKLAEKIREFNDARQRGTPFYICRDLADLESKSGDRHGPHIVEAYRAVMEMVGEHPDAGEAPRERQFAKMYLDPNTQSANALAMRKQILKGATTFLEKQFWNEVNSLIAKYPQDANLGGLPDVVSKIKAYIRLRIARKTLVPDNVELQQINGEYVWAIVFYLLRAGFVTEAAQYVNSNQAHFRAIDRTFSGYINSYASSEERRLKRQMQDRCMSEYNQRIRNAPEGSIDPFRMACYKIIGRCDLSNRSLDGLQTDVNDWIWLQFNLARETDRSLELAGESYGLAELQASIREIGLKHFPKTAAEDTNGSFGMFFYLQILAGMFEQAIAYLYPFSYVDAVHFAIALTYYGLLRPVDAASAGNELLSHNTRSMPQINFGRMLGYYTRDFRAANPAAAVDYLVLICLNADEAAGGQQAQAALCHEALRELVLESREFSRLIGDIRPDGRRIRGVIEERGPLIALGQEDDFIRTITLQAASFADDNGRTTDAVLLYHLAEDYDTVVSIVSRALSEAISLEIGEDPMRLIPVKPRVTNAEGQVEEAAPGSSLSLAAIDDPVELAKAMMGMYERDHMFWQKIREPNRVACSVLLQMADIKSLVEQGRWAECLDKIRALDILPLTARGDPGTIRSYAARFPSLAQPVAINVPNLLMWTVLCCMRQRERLAGGQFAGNESTARLMMDELKQMTVDLMAYTSQLRYRLPPHLHEALARASAD

In the experiment the parent is B1. The following applies: with nu192_chatd NUP192, G0S4T0.
nu192_chatd NUP192, G0S4T0, sequence (G0S4T0 whole entry): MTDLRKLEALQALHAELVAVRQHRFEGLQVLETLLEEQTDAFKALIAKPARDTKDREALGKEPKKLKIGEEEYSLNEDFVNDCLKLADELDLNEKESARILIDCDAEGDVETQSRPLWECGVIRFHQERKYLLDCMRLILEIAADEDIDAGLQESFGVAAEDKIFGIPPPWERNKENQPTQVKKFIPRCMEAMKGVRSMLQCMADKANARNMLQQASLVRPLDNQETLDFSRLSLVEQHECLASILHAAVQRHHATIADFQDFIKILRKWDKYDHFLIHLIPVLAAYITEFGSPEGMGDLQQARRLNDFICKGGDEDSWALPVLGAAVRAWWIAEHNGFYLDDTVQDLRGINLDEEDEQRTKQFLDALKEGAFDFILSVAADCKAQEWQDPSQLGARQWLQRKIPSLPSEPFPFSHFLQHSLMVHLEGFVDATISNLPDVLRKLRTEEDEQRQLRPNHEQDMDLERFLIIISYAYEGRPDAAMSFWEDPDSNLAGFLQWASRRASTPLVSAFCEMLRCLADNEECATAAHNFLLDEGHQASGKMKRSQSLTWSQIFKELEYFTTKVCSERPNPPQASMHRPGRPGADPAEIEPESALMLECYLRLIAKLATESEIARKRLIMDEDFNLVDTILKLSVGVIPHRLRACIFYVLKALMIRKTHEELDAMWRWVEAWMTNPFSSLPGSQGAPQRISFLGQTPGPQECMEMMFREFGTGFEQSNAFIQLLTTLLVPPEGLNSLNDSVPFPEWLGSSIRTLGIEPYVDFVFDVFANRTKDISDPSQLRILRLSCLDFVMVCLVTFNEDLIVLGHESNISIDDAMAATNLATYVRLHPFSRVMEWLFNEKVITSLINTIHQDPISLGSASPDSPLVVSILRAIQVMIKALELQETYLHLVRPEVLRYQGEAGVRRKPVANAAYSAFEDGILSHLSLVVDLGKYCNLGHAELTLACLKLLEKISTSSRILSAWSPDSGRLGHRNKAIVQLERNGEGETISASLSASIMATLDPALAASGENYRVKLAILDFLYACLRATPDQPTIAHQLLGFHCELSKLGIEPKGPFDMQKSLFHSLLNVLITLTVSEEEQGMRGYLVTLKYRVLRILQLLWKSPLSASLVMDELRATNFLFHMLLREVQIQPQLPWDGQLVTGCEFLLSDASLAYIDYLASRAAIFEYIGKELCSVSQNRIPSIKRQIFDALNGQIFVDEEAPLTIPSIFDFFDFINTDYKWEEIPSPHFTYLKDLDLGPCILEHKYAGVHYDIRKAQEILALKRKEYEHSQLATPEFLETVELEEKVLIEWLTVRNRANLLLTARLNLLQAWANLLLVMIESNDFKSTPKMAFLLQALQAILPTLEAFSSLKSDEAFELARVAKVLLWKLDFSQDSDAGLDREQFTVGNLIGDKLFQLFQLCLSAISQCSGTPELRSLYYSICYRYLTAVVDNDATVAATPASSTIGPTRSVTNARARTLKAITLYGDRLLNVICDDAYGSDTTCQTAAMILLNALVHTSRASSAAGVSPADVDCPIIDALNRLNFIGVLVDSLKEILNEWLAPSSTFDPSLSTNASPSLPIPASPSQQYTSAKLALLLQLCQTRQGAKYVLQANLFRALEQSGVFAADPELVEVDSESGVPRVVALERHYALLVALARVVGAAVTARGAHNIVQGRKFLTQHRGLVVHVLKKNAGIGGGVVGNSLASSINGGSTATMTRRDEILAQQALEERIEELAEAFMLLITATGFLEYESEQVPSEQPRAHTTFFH
On to Y251A;I264A;F275A;W287A, for which the “effect of a mutation on the interaction” value is given as “decreasing interaction”.
